± gives the half width of the 95% confidence interval.
Legend:
[1] = folding stability dG unfold (combined trypsin and chymotrypsin); higher = more stable
In short: (§1)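 Designed mini-proteins with no cysteine and under 80 residues were kept only if AlphaFold2 dimer inter-PAE was above 15. In a PA-tagged cDNA display construct, they were digested with trypsin and chymotrypsin and then sequenced. K50 was inferred by Bayesian fitting of counts, and unfolding free energy was derived per protease or combined against a sequence-predicted unfolded-state K50 and a shared folded-state K50.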

[2] = folding stability dG unfold from trypsin proteolysis; higher = more stable
In short: as §1

[3] = folding stability dG unfold from chymotrypsin proteolysis; higher = more stable
In short: as §1

Sequence	folding stability dG unfold [1]	folding stability dG unfold [2]	folding stability dG unfold [3]
SAGGSAGGSAGGMYITFDFEVPPNNPEVIEELKSKGIEYKKIEPKPDKVKVKVIIPEKLLSAGGSAGGSAGG [r7_41_JUSTAS]	-0.38 ± 0.27 kcal/mol	-0.638 ± 0.3 kcal/mol	-0.12 ± 0.27 kcal/mol
SAGGSAGGSAGGMYVAVVTRPDGSRLVVETEPGEEIELFTEDGRPLGITAVAPVDEEAFSAGGSAGGSAGGS [r10_422_TrMRF]	0.227 ± 0.09 kcal/mol	0.444 ± 0.036 kcal/mol	-0.334 ± 0.18 kcal/mol
SAGGSAGGSAGGNGKKEITIFIKVPPGMPPNEIKDELKDLGLTNIEIERHNNWVMITFRSAGGSAGGSAGGS [r10_868_TrROS]	1.58 ± 0.12 kcal/mol	1.15 ± 0.06 kcal/mol	1.84 ± 0.099 kcal/mol
SAGGSAGGSAGGNIEVLPIPDGYWVIKIPDGRIMVFNPGRGEFEPIPIENVTIEPVRPGDSAGGSAGGSAGG [r7_656_TrROS]	0.783 ± 0.076 kcal/mol	0.4 ± 0.021 kcal/mol	0.929 ± 0.055 kcal/mol
SAGGSAGGSAGGNIKVDDVHHNPNNYRQVKIDLPGGKPIKIWMSMDDPNNVKEIAKEIFSAGGSAGGSAGGS [r10_472_TrROS]	-0.22 ± 0.1 kcal/mol	-0.191 ± 0.048 kcal/mol	-0.414 ± 0.18 kcal/mol
SAGGSAGGSAGGNITVTEDGWIVIEIPYYSPDGGPSPITIVIPIPKMPPEEAEELADKGSAGGSAGGSAGGS [r10_1096_TrROS]	1.11 ± 0.14 kcal/mol	1.13 ± 0.14 kcal/mol	1.04 ± 0.14 kcal/mol
SAGGSAGGSAGGNNLYSTSTTVLSTVPVRPDETVTRPGTGAPVSPSETVALSTTSTAPSLSAGGSAGGSAGG [r11_793_JUSTAS]	0.246 ± 0.054 kcal/mol	0.629 ± 0.026 kcal/mol	-0.729 ± 0.081 kcal/mol
SAGGSAGGSAGGPDAAPSAVREYVLVTVPVYAENGTPLGPVTVVAPASVSLAAVADAVFNSAGGSAGGSAGG [r7_109_TrMRF]	0.399 ± 0.11 kcal/mol	0.292 ± 0.077 kcal/mol	0.368 ± 0.19 kcal/mol
SAGGSAGGSAGGPDDWVEVYFIMVSIKPKEVKPDPNGGAEYEFEIKISIFPFWIPPDDISAGGSAGGSAGGS [r10_524_TrROS]	3.94 ± 0.22 kcal/mol	3.33 ± 0.26 kcal/mol	4.15 ± 0.18 kcal/mol
SAGGSAGGSAGGPDWRMISIPITFRFYVMEYDGGKPKKAEPIHEHPIPIMIMFPPDALKSAGGSAGGSAGGS [r10_492_TrROS]	2.91 ± 0.07 kcal/mol	1.87 ± 0.032 kcal/mol	3.35 ± 0.014 kcal/mol
SAGGSAGGSAGGPENDWREVDIKIKFENPEGKPIFDIKIYYMPDGDIMIYFPNGNWIWISAGGSAGGSAGGS [r10_972_TrROS]	3.75 ± 0.17 kcal/mol	2.42 ± 0.14 kcal/mol	4.14 ± 0.065 kcal/mol
SAGGSAGGSAGGPKAIVTEVEVEPNTGKARLKVKVYDPVTGKFSEFEVEVETTGKDLNLSAGGSAGGSAGGS [r10_173_TrMRF]	1.89 ± 0.11 kcal/mol	1.08 ± 0.049 kcal/mol	2.37 ± 0.074 kcal/mol
SAGGSAGGSAGGPKAPGDKAVPATVEVRVTEYAVVPGLGEKLEKLPEKTFKATFVFFNKSAGGSAGGSAGGS [r10_122_TrMRF]	0.286 ± 0.092 kcal/mol	-0.48 ± 0.26 kcal/mol	0.611 ± 0.11 kcal/mol
SAGGSAGGSAGGPKLVLKIKTEIKIEKKLEFDPETGELTEEIEIEIKIEIELEPLPEGLSAGGSAGGSAGGS [r10_376_TrROS_Hall]	2.83 ± 0.96 kcal/mol	1.32 ± 0.25 kcal/mol	3.24 ± 0.35 kcal/mol
SAGGSAGGSAGGPKVEVLEVFEFGDLRFVKVYDPETGKVTLLAVTRSDGSKVTFFNPEESAGGSAGGSAGGS [r10_655_TrMRF]	2.23 ± 0.15 kcal/mol	1.42 ± 0.056 kcal/mol	2.58 ± 0.053 kcal/mol
SAGGSAGGSAGGPLKVEVIGSIEGDDRVYVLTRVPGVGGLFVAEYEKPSGKILSVSPVPLSAGGSAGGSAGG [r7_154_TrMRF]	1.07 ± 0.081 kcal/mol	0.743 ± 0.065 kcal/mol	1.3 ± 0.15 kcal/mol
SAGGSAGGSAGGPLPGKPPLRLKLFTLTVRTRTYRKTEDGTWEEVEESEAEITVLVLEPVSAGGSAGGSAGG [r7_506_TrROS_Hall]	4.71 ± 0.14 kcal/mol	3.45 ± 0.11 kcal/mol	4.99 ± 0.17 kcal/mol
SAGGSAGGSAGGPMPVSVSPIGTKVEKTEEPLVVETTTTLSDAEGPPVTTTTTTVTPPSTSAGGSAGGSAGG [r11_129_JUSTAS]	1.35 ± 0.13 kcal/mol	1.27 ± 0.08 kcal/mol	1.33 ± 0.1 kcal/mol

Sequence	folding stability dG unfold [1]	folding stability dG unfold [2]	folding stability dG unfold [3]
SAGGSAGGSAGGPPSVPITITLIILFPDGYFIVIELTIEVPPDGEIEIKIKILHIFPVKSAGGSAGGSAGGS [r10_1139_TrROS]	3.6 ± 0.12 kcal/mol	3.1 ± 0.093 kcal/mol	3.76 ± 0.12 kcal/mol
SAGGSAGGSAGGPRMTVVDLDPEKGDHLYLVEIPDTNEVVLVSSSELLRLAEAGPVELKGSAGGSAGGSAGG [r7_452_TrMRF]	0.129 ± 0.14 kcal/mol	-0.107 ± 0.27 kcal/mol	0.115 ± 0.062 kcal/mol
SAGGSAGGSAGGPRPLRRELRIRRRFRFRVLGLEEGEPRPREFEVEVELVLVETRGPGESAGGSAGGSAGGS [r10_118_TrMRF]	3.84 ± 0.21 kcal/mol	2.65 ± 0.082 kcal/mol	4.31 ± 0.093 kcal/mol
SAGGSAGGSAGGPRTIYIPVKVEPDPNGKWKIDIEEIAKNLPDVKITSITPNYIKITFPASAGGSAGGSAGG [r11_771_TrROS]	1.08 ± 0.16 kcal/mol	0.398 ± 0.18 kcal/mol	1.38 ± 0.13 kcal/mol
SAGGSAGGSAGGPRTLTLTVTLTRTYYDEETGEEVETETETLTLTLRLEPPPPLSPEQLSAGGSAGGSAGGS [r10_50_TrROS_Hall]	2.99 ± 0.17 kcal/mol	2.69 ± 0.061 kcal/mol	3.19 ± 0.07 kcal/mol
SAGGSAGGSAGGPTVTLTLEVPVEDAEELAKALEDAGKARVTKVERNEDGFLRITVEFEDSAGGSAGGSAGG [r7_589_TrROS_Hall]	1.06 ± 0.075 kcal/mol	0.593 ± 0.048 kcal/mol	1.28 ± 0.027 kcal/mol
SAGGSAGGSAGGPVRIVMKPSDIEYLLEKFGVEPLEIEEVEEDYVVVTITPEALKEAGLGSAGGSAGGSAGG [r7_587_TrMRF]	1.01 ± 0.18 kcal/mol	1.1 ± 0.065 kcal/mol	0.737 ± 0.049 kcal/mol
SAGGSAGGSAGGPYVVKVKLKDGSVVELPVEEDHIPTIEDLVKAGIPPELIESVEIEPESAGGSAGGSAGGS [r10_565_TrMRF]	2.91 ± 0.1 kcal/mol	2.57 ± 0.12 kcal/mol	3.09 ± 0.093 kcal/mol
SAGGSAGGSAGGRKLAIKIEIEEVKTETRIRPDGKTETRTELRIKIEIRPVPHPDDPELLSAGGSAGGSAGG [r7_523_TrROS_Hall]	2.34 ± 0.25 kcal/mol	2.99 ± 0.12 kcal/mol	1.95 ± 0.056 kcal/mol
SAGGSAGGSAGGRKRYRFKPGQRLEPRLVFRLKLRLELERDEDGNLSLKLELEIEEVRLLSAGGSAGGSAGG [r7_572_TrROS_Hall]	4.09 ± 0.29 kcal/mol	3.35 ± 0.13 kcal/mol	4.41 ± 0.098 kcal/mol
SAGGSAGGSAGGRLVVFEVKKDELNITGPGEARVVSVEELPGDRVRVVVEVPEGAVPGLASAGGSAGGSAGG [r17_48_TrMRF]	0.935 ± 0.12 kcal/mol	0.324 ± 0.084 kcal/mol	1.27 ± 0.066 kcal/mol
SAGGSAGGSAGGSADKNGYVKIPITVFTMERYGNGQPKMETVKVEIYVPPGESIEDLLQSAGGSAGGSAGGS [r4_283_TrROS]	0.247 ± 0.22 kcal/mol	0.0466 ± 0.19 kcal/mol	0.166 ± 0.32 kcal/mol
SAGGSAGGSAGGSAGVIVSLSPAPPSADTVVELPKGVTVTVTTVNGERVLTTLVPEALLSAGGSAGGSAGGS [r10_355_JUSTAS]	0.217 ± 0.048 kcal/mol	0.365 ± 0.013 kcal/mol	0.00971 ± 0.032 kcal/mol
SAGGSAGGSAGGSAKITIEYNPETNTLTVTITLENGEKVEITVPPNATLEEIEELAKKASAGGSAGGSAGGS [r4_205_TrROS_Hall]	3.04 ± 0.3 kcal/mol	3.41 ± 0.28 kcal/mol	2.49 ± 0.11 kcal/mol
SAGGSAGGSAGGSAPPKVEIEVTVLVKDEDGRLYVFKAKATFDLETNELTVEVEVYELPSAGGSAGGSAGGS [r4_445_TrROS_Hall]	4.66 ± 0.35 kcal/mol	3.22 ± 0.39 kcal/mol	4.79 ± 0.13 kcal/mol
SAGGSAGGSAGGSDDFVLRYRRRVRRKPKEVRLLPNGELVTGWEEEVSTFPVLTHPDDDSAGGSAGGSAGGS [r10_524_TrMRF]	0.448 ± 0.044 kcal/mol	0.239 ± 0.11 kcal/mol	0.5 ± 0.065 kcal/mol
SAGGSAGGSAGGSDNDGAKPPKIKVEIHPVNMPPGDIVVHNDHYVIAFPNGWFFVIRPKSAGGSAGGSAGGS [r4_394_TrROS]	1.32 ± 0.14 kcal/mol	0.911 ± 0.064 kcal/mol	1.61 ± 0.16 kcal/mol
SAGGSAGGSAGGSDNKAILGDVPIKFYDKNGKPVITAKIGYFPDGRVVIYFPDGSKIEASAGGSAGGSAGGS [r10_972_TrMRF]	1.25 ± 0.038 kcal/mol	1.48 ± 0.04 kcal/mol	1.04 ± 0.023 kcal/mol

Reference: the supplement of paper PMC12764529
